Experimental data: patent US12428456B2, “Peptide directed protein knockdown” (University of British Columbia, priority 2012, dated 2025)
“Also recorded” adds a separate entry of the source. No end group written: not given here.

How the values were obtained:
α-synuclein [1] = target: T1, α-synuclein (Homo sapiens, UniProt P37840); test: Knockdown of co-expressed α-synuclein in HEK cells (immunoblot); assay type: cell-based; conditions: for effect on α-synuclein levels: co-expression at various ratios, 48 hours
T1 construct: expressed in transfected cells; host or cells: HEK293
Protocol: Plasmid construction. CTS-GFP was constructed by introducing a BamHI fragment containing the CTS coding sequence into the pEGFP-N2 vector (Clontech #6081-1). The CTS coding sequence was prepared by annealing custom design oligonucleotides (Integrated DNA Technologies). mCTS-GFP was constructed by performing single point mutations to CTS-GFP plasmid. FLAG-βsyn36 was constructed by annealing oligonucleotides and inserting into pcDNA3.0 using HindIII and NotI restriction sites (HindIII, Fermentas, FD0504; NotI Fermentas, FD0594). FLAG-βsyn36-CTS was constructed by PCR using FLAG-βsyn36 as template and adding CTS coding sequence to the reverse primer. FLAG-cDAPK1 was constructed by deleting the autoinhibitory domain from WT-DAPK1 (789-936 bp). NR2Bct (1242-1342aa) was prepared by PCR using NR2B expression vector. NR2Bct-CTS fragment was obtained by inserting NR2Bct fragment into CTS-GFP using EcoRI and BglII restriction sites (EcoRI, Fermentas, FD0274; BglII, Fermentas, FD0084), then PCR, introducing NcoI and EcoRI to the fragment (NcoI, Fermentas, FD0574). His-TAT-NR2Bct-CTS was constructed by cloning NR2Bct-CTS into the pTAT/pTAT-HA plasmids (generous gift of S. Dowdy, Washington University, St. Louis, MO^31) using NcoI and EcoRI restriction sites. His-TAT-NR2Bct was constructed by mutating the first amino acid in CTS sequence into a stop codon. HA-NR2Bct-CTS was constructed by PCR using His-TAT-NR2Bct-CTS as template, with BamHI site in both forward and reverse primers, and then inserted into pcDNA3.0 with BamHI (Fermentas, FERFD0054). HA-NR2Bct-CTSm was constructed by point mutations.
(§1) Cell culture, transfection and treatments. HEK293 cells and COS7 cells were cultured in DMEM (Sigma, D6429-24X500ML) supplemented with 10% Fetal Bovine Serum (Invitrogen, 12483020). Cells were grown to 80% confluence in 6-well plates before transiently transfected with Lipofectamine 2000 (Invitrogen, 11668019), as according to the manufacturer's protocols. Cells were transfected for either 24 or 48 hours at 37° C. before harvesting for biochemical analyses. For experiments involving TAT or His-TAT peptides, unless otherwise specified, peptides were added 1 hour prior to NMDA insult.
(§2) Immunoblotting. Immunoblotting assays were carried out as previously described^36. Briefly, proteins were extracted from neurons using a lysis buffer composed of 150 mM NaCl, 50 mM Tris, pH 7.4, 0.1% SDS, 1% NP-40, 0.5% sodium deoxycholate, 1 mM EDTA, 1 mM Na3VO4, and proteinase inhibitor mixture (Thermo Fisher, PI78442). Samples were separated on 10% SDS-PAGE gels, transferred to polyvinylidene difluoride (PVDF) membrane, and immunoblotted with respective antibodies. Blots were enhanced with chemiluminescence detection reagent kit (Fisher, 32106) and visualized with Bio-Rad imager and Quantity One software. Signal intensities from each band was quantified with Bio-Rad Image Lab software, and the bands were analyzed relative to their controls from the same membrane and experiment.

α-synuclein [2] = target: T2, α-synuclein (Rattus norvegicus, UniProt P37377); test: Degradation of endogenous α-synuclein in cultured neurons (immunoblot); assay type: cell-based; conditions: for effect on endogenous α-synuclein level: 25 μM bath applied, 4 hours
T2 construct: endogenous in cells; host or cells: primary rat neurons
Protocol: (§3) Primary culture of cortical neurons. Dissociated cultures of rat cortical neurons were prepared from Sprague Dawley rat embryos collected from euthanized mothers 18 days after fertilization as previously described^35. Briefly, hippocampi and cerebral cortices were extracted from embryos and incubated for 30 min in 0.25% trypsin-EDTA. Digested tissues were dissociated by trituration and plated on poly-D-lysine-coated (Sigma, P7280) plates. Plating medium consisted of Neurobasal Media (Invitrogen, 21103-049) supplemented with B27 (Invitrogen, 17504044), glutamic acid (Sigma, G8415) and GlutaMax (Invitrogen, 35050-061). After 2 days, 2/3 of the media was replaced with fresh Neurobasal feeding media consisting of Neurobasal Media, B27 and GlutaMax. Cultures were maintained at 37° C. in a humidified 5% CO2 atmosphere. Mature neurons (14-18 days in vitro (DIV)) were used for experiments.
as §2

PSD95 = target: T3, PSD95 (Rattus norvegicus, UniProt P31016); test: Degradation of endogenous PSD95 in cultured neurons (immunoblot); assay type: cell-based; conditions: for effect on endogenous PSD95 level: 25 μM bath applied
T3 construct: endogenous in cells; host or cells: primary rat neurons
Protocol: as §3, §2

DAPK1 [3] = target: T4, DAPK1 (Rattus norvegicus, UniProt F1LNN8); test: DAPK1 knockdown in brain, rat MCAO focal ischemia model (immunoblot, immunohistochemistry); assay type: in vivo; conditions: 10 mg/kg i.v.
T4 construct: decreased the level of endogenous DAPK1 in cultured cortical neurons following NMDA treatment; endogenous in cells; host or cells: primary rat cortical neurons (E18, 14-18 DIV)
Protocol: as §2
Middle cerebral arterial occlusion (MCAO). All animal experiments were performed according to protocols approved by the University of British Columbia Committee on Animal Care. Adult naïve male Sprague-Dawley rats (300-350 g, Charles River) were group housed (3-4 animals/cage) in 12 hr:12 hr light-dark cycles and had free access to rat pellet chow and water prior to surgery. Reversible MCAO with suture-insertion method was performed as described previously^37. Briefly, a nylon suture with a blunted tip was entered through the right external carotid artery of anesthetized rats and advanced to the right internal carotid artery until the right MCA was occluded. After 60 min of occlusion, the rat was reanesthetized to facilitate the removal of the occlusion. Body temperature was maintained at between 36.5 and 37.5° C. throughout the surgical procedure with a heating pad. Peptides (10 mg/kg) or vehicle control (saline; 1 ml/kg) was injected via the jugular vein. Rats were then sewn up and allowed to recover until tissue collection.
Immunohistochemistry. Rats were anesthetized and perfused with double-filtered saline and 4% paraformaldehyde (PFA) in PBS. Brains were collected, immersed in 4% PFA before subjected to cryoprotection by 30% sucrose/PBS. After the brains had sunk, they were flash frozen with dry ice before overnight freezing in −80° C. They were then sliced at […] with a cryostat, and stored in 0.1 μM PB (sodium phosphate dibasic and sodium phosphate monobasic). Prior to staining, slices were washed 3×10 min with 0.1 μM PB, permeablized and blocked in 0.1 μM PB with 1% BSA and 0.2% Triton X-100 for 30 min, and stained with anti-DAPK1 (1:100) at 4° C. for 3 days. They were then washed and stained with Alexa 488 (1:1000) at 4° C. overnight before washing and mounting.

DAPK1 [4] = target: T4, DAPK1; test: Knockdown of native DAPK1 in cultured cortical neurons, NMDA stimulation (immunoblot); assay type: cell-based; conditions: for effect on DAPK1 in cytosolic fraction / effect on DAPK1 in mitochondrial fraction / effect on DAPK1 in nuclear fraction: 1 hr prior to and during NMDA; for effect on DAPK1 in cytosolic fraction / effect on DAPK1 in mitochondrial fraction / effect on DAPK1 in nuclear fraction / levels of endogenous DAPK1 reduced by: 2 hours after washout; for reduction of activated DAPK1 on application alone: NR2B-CTS or Pep-1 alone; for levels of endogenous DAPK1 reduced by: with Pep-1 (1:4)
Protocol: as §1, §3, §2
Cellular fractionation. Cytoplasm/nuclei fractionation was performed on cultured cortical neurons (6.0*10^6 cells/100 mm dish). Briefly, cells were washed with ice cold PBS and rocked in lysis buffer for 30 min. Cells were then collected and centrifuged to obtain a rough cytoplasmic and nuclear fraction. Supernatant was collected and further centrifuged to obtain purified cytosolic fraction. The original pellet was washed and vortexed to obtain a nuclear lysis. Mitochondrial fractionation was performed as described in the Pierce Mitochondria Isolation Kit for Cultured Cells (Thermo Scientific, 89874) user guide. Purity was assessed by immunoblotting for the presence of LB1 (nucleus only), HSP90 (cytosol only) and VDAC1 (mitochondria only).

T3 sequence (P31016 whole entry): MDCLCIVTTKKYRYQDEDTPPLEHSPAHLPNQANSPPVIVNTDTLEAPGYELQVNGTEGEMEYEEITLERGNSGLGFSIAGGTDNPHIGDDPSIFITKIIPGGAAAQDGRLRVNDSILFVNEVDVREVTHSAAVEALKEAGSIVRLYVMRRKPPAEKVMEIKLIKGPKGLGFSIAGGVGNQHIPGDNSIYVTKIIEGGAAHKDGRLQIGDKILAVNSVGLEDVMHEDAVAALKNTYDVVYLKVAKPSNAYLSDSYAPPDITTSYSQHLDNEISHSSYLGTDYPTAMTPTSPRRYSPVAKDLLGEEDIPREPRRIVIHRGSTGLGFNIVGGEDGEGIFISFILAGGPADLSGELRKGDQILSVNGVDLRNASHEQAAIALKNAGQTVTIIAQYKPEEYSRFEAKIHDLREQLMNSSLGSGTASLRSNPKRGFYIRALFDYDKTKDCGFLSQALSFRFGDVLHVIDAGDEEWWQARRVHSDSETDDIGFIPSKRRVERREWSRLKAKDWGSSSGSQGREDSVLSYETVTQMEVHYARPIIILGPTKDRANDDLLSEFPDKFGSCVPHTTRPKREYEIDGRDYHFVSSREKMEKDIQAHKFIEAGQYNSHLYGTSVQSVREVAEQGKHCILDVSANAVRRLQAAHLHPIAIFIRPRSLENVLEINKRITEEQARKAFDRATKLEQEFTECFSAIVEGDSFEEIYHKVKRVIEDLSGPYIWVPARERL
T4 sequence (F1LNN8 1-1430): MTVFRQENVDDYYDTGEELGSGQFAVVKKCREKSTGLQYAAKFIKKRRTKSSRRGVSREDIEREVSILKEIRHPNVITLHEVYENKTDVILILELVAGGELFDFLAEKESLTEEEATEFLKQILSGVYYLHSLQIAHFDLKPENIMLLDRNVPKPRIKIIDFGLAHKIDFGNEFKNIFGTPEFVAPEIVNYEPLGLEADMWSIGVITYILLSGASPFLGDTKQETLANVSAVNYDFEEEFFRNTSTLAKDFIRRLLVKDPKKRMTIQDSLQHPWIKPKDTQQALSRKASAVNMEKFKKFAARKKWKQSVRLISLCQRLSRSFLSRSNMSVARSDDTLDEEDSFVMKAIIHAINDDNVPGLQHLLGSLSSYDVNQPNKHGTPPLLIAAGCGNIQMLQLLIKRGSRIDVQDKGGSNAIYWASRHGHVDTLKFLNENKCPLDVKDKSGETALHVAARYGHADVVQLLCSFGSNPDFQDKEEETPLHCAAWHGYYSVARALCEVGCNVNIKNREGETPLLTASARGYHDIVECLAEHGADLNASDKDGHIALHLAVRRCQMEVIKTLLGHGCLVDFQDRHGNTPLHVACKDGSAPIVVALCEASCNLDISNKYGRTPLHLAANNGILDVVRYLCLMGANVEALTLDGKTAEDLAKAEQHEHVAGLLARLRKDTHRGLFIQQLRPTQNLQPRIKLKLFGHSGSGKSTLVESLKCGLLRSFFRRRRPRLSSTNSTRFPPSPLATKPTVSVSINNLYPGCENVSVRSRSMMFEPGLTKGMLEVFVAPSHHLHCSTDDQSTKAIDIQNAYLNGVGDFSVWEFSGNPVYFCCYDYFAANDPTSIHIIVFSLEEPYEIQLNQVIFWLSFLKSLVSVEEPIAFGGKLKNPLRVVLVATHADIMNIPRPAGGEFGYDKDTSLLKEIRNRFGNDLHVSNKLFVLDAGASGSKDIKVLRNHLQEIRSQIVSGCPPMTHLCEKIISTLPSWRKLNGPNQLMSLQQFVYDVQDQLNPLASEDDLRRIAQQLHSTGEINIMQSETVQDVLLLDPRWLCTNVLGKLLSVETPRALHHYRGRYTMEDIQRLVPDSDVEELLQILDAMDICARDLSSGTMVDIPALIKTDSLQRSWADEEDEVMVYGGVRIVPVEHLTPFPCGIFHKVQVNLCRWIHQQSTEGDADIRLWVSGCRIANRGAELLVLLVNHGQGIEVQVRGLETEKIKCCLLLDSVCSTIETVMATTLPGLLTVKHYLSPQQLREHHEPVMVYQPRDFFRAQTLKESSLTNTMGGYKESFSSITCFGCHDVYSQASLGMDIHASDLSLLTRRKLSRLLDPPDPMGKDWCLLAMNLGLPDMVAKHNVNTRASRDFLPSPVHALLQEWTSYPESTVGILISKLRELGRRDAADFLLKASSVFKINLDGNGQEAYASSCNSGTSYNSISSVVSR

Substance: FLAG-βsyn36: expressed FLAG-tagged β-synuclein 36-45 peptide without CTS ({FLAG}-GVLYVGSKTR; UniProt Q16143 36-45, looked up, fragment) [reference compound]
- effect on α-synuclein levels (α-synuclein [1]): did not significantly affect

Substance: YGRKKRRQRRRGVLYVGSKTRKFERQKILDQRFFE (Knockdown peptide targeting alpha-synuclein, with TAT protein transduction domain) [TAT-βsyn-CTM, synthetic cell-penetrating α-synuclein targeting peptide]
- effect on endogenous α-synuclein level (α-synuclein [2]): significantly degraded native α-synuclein; also recorded: specifically decreased the targeted endogenous α-synuclein
- effect of 3-methyladenine on α-synuclein reduction (α-synuclein [2]; 25 μM, +3-MA 10 mM): not by inhibition of macroautophagy with 3-methyladenine; also recorded: significantly decreased native α-synuclein in the presence of 3-MA
- effect of NH4Cl on α-synuclein reduction (α-synuclein [2]; 25 μM, +NH4Cl 20 mM): rescued; also recorded: prevented
- effect on endogenous PSD95 level (PSD95): without affecting the non-intended target PSD95; also recorded: without affecting the level of unrelated control proteins PSD-95

Substance: YGRKKRRQRRRKKNRNKLRRQHSYKFERQKILDQRFFE (Knockdown peptide targeting DAPK1, with TAT protein transduction domain) [TAT-NR2B-CTS]
- level of DAPK1 in ischemic side, of that on the contralateral side (DAPK1 [3]; 1 hour following reperfusion, 60 min MCAO): 43.3%
- region specificity of DAPK1 knockdown (immunohistochemistry) (DAPK1 [3]; brain sections, listed as TAT-NR2BCTM): specific to stroke-damaged areas; also recorded: selectively reduced the level of DAPK1
- effect on DAPK1 levels in brain tissues (immunoblot) (DAPK1 [3]; ischemic vs contralateral side, listed as TAT-NR2BCTM): significant reduction in DAPK1 levels only in the ischemic side of the brain; also recorded: specific knockdown of DAPK1 only in tissues collected from the infract side
- effect of siRNA-mediated Lamp2a knockdown on DAPK1 knockdown (DAPK1 [4]; 25 μM peptide, NMDA, Lamp2a siRNA 60 pmol 3 days): inhibition of TAT-NR2BCTM induced knockdown of DAPK1
- effect on DAPK1 in cytosolic fraction (DAPK1 [4]; 25 μM): reduced the levels of DAPK1
- effect on DAPK1 in mitochondrial fraction (DAPK1 [4]; 25 μM): reduced the levels of DAPK1
- effect on DAPK1 in nuclear fraction (DAPK1 [4]; 25 μM): reduced the levels of DAPK1
- effect on DAPK1 in cytosolic fraction (DAPK1 [4]; 25 μM, listed as TAT-NR2BCTM): significantly decreased DAPK1
- effect on DAPK1 in mitochondrial fraction (DAPK1 [4]; 25 μM, listed as TAT-NR2BCTM): significantly decreased DAPK1
- effect on DAPK1 in nuclear fraction (DAPK1 [4]; 25 μM, listed as TAT-NR2BCTM): significantly decreased DAPK1
- effect of macroautophagy inhibitor on DAPK1 knockdown (DAPK1 [4]; NMDA, +3-MA): did not alter
- effect of lysosomal inhibitor on DAPK1 reduction (DAPK1 [4]; synthetic peptide 25 μM, NMDA, +NH4Cl 20 mM): rescued; also recorded: prevented
- effect on DAPK1 level after NMDA treatment (DAPK1 [4]; synthetic peptide 25 μM, prior to and during NMDA): significant reduction of DAPK1; also recorded: decreased native DAPK1

Substance: KETWWETWWTEWSQPKKKRKV [Pep-1, short amphipathic intracellular delivering carrier peptide, reference compound]
- reduction of activated DAPK1 on application alone (DAPK1 [4]; NMDA): not produced

Substance: KKNRNKLRRQHSYKFERQKILDQRFFE (Knockdown peptide targeting DAPK1, without TAT protein transduction domain) [NR2B-CTS, synthetic DAPK1 degradation targeting peptide without TAT, delivered with Pep-1]
- levels of endogenous DAPK1 reduced by (DAPK1 [4]; 10 μM, NMDA): 33.60±14.48%
- levels of endogenous DAPK1 reduced by (DAPK1 [4]; 25 μM, NMDA): 43.65±2.05%
- levels of endogenous DAPK1 reduced by (DAPK1 [4]; 50 μM, NMDA): 63.88±6.18%
- reduction of activated DAPK1 on application alone (DAPK1 [4]; NMDA): not produced
- effect on DAPK1 levels in non-NMDA treated neurons (DAPK1 [4]; delivered by Pep-1, no NMDA): did not affect DAPK1 levels
- DAPK1 decrease (DAPK1 [4]; with Pep-1, 1 hour following NMDA and peptide washout): 58.27±5.48%
- DAPK1 decrease (maximum level) (DAPK1 [4]; with Pep-1, 2 hours after washout): 78.79±1.15%
- effect of NH4Cl on DAPK1 reduction (DAPK1 [4]; with Pep-1, NMDA, +NH4Cl 20 mM): fully rescued

Substance: FLAG-βsyn36-CTS: expressed FLAG-tagged peptide of β-synuclein 36-45 and CTS (untagged: SEQ ID NO:1 GVLYVGSKTRKFERQKILDQRFFE) ({FLAG}-GVLYVGSKTRKFERQKILDQRFFE)
- effect of lysosome inhibitor on peptide-induced α-synuclein reduction (α-synuclein [1]; +NH4Cl 20 mM): completely rescued; also recorded: prevented
- effect on α-synuclein levels (α-synuclein [1]): significantly decreased α-synuclein levels in a dose-dependent manner
- effect on α-synuclein levels (α-synuclein [1]; listed as βsyn36-CTS): constitutively reduced α-synuclein in a dose-dependent manner
- α-synuclein reduced by, of control α-synuclein levels (α-synuclein [1]; co-expression ratio 2:1, 48 hours): 42.89%±11.34%
- α-synuclein reduced by, of control α-synuclein levels (α-synuclein [1]; co-expression ratio 4:1, 48 hours): 46.49%±5.72%
- α-synuclein reduced by, of control α-synuclein levels (α-synuclein [1]; co-expression ratio 8:1, 48 hours): 52.18%±6.61%
- α-synuclein reduced by, of control α-synuclein levels (α-synuclein [1]; co-expression ratio peptide:α-synuclein 1:1, 48 hours): 32.40%±7.14%

Substance: YGRKKRRQRRRKLSSIESDVKFERQKILDQRFFE (targeted knockdown peptide targeting PSD95, with TAT PTD) [TAT-NR2B9c-CTM, PSD-95 targeting peptide]
- effect on endogenous α-synuclein level (α-synuclein [2]): without perturbing untargeted protein α-synuclein
- effect on endogenous PSD95 level (PSD95): significantly reduced PSD95; also recorded: effectively degraded endogenous PSD95
- effect of NH4Cl on PSD95 reduction (PSD95; 25 μM, +NH4Cl): rescued PSD95 degradation
